From the supplement of paper PMC5998384

Legend:
HeLa Kyoto [1] = experiment: thermal stability score vs G1/S (z-score of summed log2 fold changes over temperatures); higher = more thermally stable than in G1/S
HeLa Kyoto [2] = experiment: solubility change mitosis vs G1/S (difference of NP-40 vs SDS log2 ratios) (log2 ratio difference); higher = more soluble in mitosis
HeLa Kyoto [3] = experiment: melting temperature (median over replicates), in situ; higher = more thermally stable
HeLa Kyoto [4] = experiment: solubility in G1/S (NP-40 vs SDS abundance) (log2 ratio); higher = more soluble; conditions: cell cycle stage: G1/S
[5] = cell cycle stage: early G1 (4.5 h after nocodazole release)
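Throughout, for melting temperature (median over replicates), in situ: HeLa Kyoto cells synchronized by double thymidine or nocodazole block, proteins quantified by TMT10plex mass spectrometry, three independent biological replicates.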
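Throughout, for solubility change mitosis vs G1/S (difference of NP-40 vs SDS log2 ratios): synchronized HeLa Kyoto cells (double thymidine block for G1/S, nocodazole release for mitosis), protein amounts in NP-40 versus SDS lysates quantified by mass spectrometry, three biological replicates.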
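Throughout, for solubility in G1/S (NP-40 vs SDS abundance): HeLa Kyoto cells arrested at G1/S by double thymidine block, proteins quantified by TMT10plex mass spectrometry in mild NP-40 versus SDS extracts, three biological replicates.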
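Throughout, for thermal stability score vs G1/S (z-score of summed log2 fold changes over temperatures): synchronized HeLa Kyoto cells, proteins quantified by TMT10plex mass spectrometry, three biological replicates, mitosis taken 0.5 h after nocodazole release, G1/S directly after double thymidine block.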

| Sequence | thermal stability score (HeLa Kyoto [1]; [5]) | thermal stability score (HeLa Kyoto [1]; cell cycle stage: mitosis) | solubility change mitosis (log2) (HeLa Kyoto [2]) | melting temperature (HeLa Kyoto [3]; cell cycle stage: G1/S) | melting temperature (HeLa Kyoto [3]; cell cycle stage: mitosis) | solubility in G1/S (log2) (HeLa Kyoto [4]) |
| --- | --- | --- | --- | --- | --- | --- |
| MSKSFQQSSLSRDSQGHGRDLSAAGIGLLAAATQSLSMPASLGRMNQGTARLASLMNLGMSSSLNQQGAHSALSSASTSSHNLQSIFNIGSRGPLPLSSQHRGDADQASNILASFGLSARDLDELSRYPEDKITPENLPQILLQLKRRRTEEGPTLSYGRDGRSATREPPYRVPRDDWEEKRHFRRDSFDDRGPSLNPVLDYDHGSRSQESGYYDRMDYEDDRLRDGERCRDDSFFGETSHNYHKFDSEYERMGRGPGPLQERSLFEKKRGAPPSSNIEDFHGLLPKGYPHLCSICDLPVHSNKEWSQHINGASHSRRCQLLLEIYPEWNPDNDTGHTMGDPFMLQQSTNPAPGILGPPPPSFHLGGPAVGPRGNLGAGNGNLQGPRHMQKGRVETSRVVHIMDFQRGKNLRYQLLQLVEPFGVISNHLILNKINEAFIEMATTEDAQAAVDYYTTTPALVFGKPVRVHLSQKYKRIKKPEGKPDQKFDQKQELGRVIHLSNLPHSGYSDSAVLKLAEPYGKIKNYILMRMKSQAFIEMETREDAMAMVDHCLKKALWFQGRCVKVDLSEKYKKLVLRIPNRGIDLLKKDKSRKRSYSPDGKESPSDKKSKTDGSQKTESSTEGKEQEEKSGEDGEKDTKDDQTEQEPNMLLESEDELLVDEEEAAALLESGSSVGDETDLANLGDVASDGKKEPSDKAVKKDGSASAAAKKKLKKVDKIEELDQENEAALENGIKNEENTEPGAESSENADDPNKDTSENADGQSDENKDDYTIPDEYRIGPYQPNVPVGIDYVIPKTGFYCKLCSLFYTNEEVAKNTHCSSLPHYQKLKKFLNKLAEERRQKKET [MATR3] | 9.67 | 19.4 | 0.223 | 45.7 °C | 48.2 °C | -0.173 |
| MSKSLKKLVEESREKNQPEVDMSDRGISNMLDVNGLFTLSHITQLVLSHNKLTMVPPNIAELKNLEVLNFFNNQIEELPTQISSLQKLKHLNLGMNRLNTLPRGFGSLPALEVLDLTYNNLSENSLPGNFFYLTTLRALYLSDNDFEILPPDIGKLTKLQILSLRDNDLISLPKEIGELTQLKELHIQGNRLTVLPPELGNLDLTGQKQVFKAENNPWVTPIADQFQLGVSHVFEYIRSETYKYLYGRHMQANPEPPKKNNDKSKKISRKPLAAKNR [RSU1] | -0.646 | -1.96 | 0.203 | 50.3 °C | 52.9 °C | 0.389 |
| MSKTNKSKSGSRSSRSRSASRSRSRSFSKSRSRSRSLSRSRKRRLSSRSRSRSYSPAHNRERNHPRVYQNRDFRGHNRGYRRPYYFRGRNRGFYPWGQYNRGGYGNYRSNWQNYRQAYSPRRGRSRSRSPKRRSPSPRSRSHSRNSDKSSSDRSRRSSSSRSSSNHSRVESSKRKSAKEKKSSSKDSRPSQAAGDNQGDEAKEQTFSGGTSQDTKASESSKPWPDATYGTGSASRASAVSELSPRERSPALKSPLQSVVVRRRSPRPSPVPKPSPPLSSTSQMGSTLPSGAGYQSGTHQGQFDHGSGSLSPSKKSPVGKSPPSTGSTYGSSQKEESAASGGAAYTKRYLEEQKTENGKDKEQKQTNTDKEKIKEKGSFSDTGLGDGKMKSDSFAPKTDSEKPFRGSQSPKRYKLRDDFEKKMADFHKEEMDDQDKDKAKGRKESEFDDEPKFMSKVIGANKNQEEEKSGKWEGLVYAPPGKEKQRKTEELEEESFPERSKKEDRGKRSEGGHRGFVPEKNFRVTAYKAVQEKSSSPPPRKTSESRDKLGAKGDFPTGKSSFSITREAQVNVRMDSFDEDLARPSGLLAQERKLCRDLVHSNKKEQEFRSIFQHIQSAQSQRSPSELFAQHIVTIVHHVKEHHFGSSGMTLHERFTKYLKRGTEQEAAKNKKSPEIHRRIDISPSTFRKHGLAHDEMKSPREPGYKAEGKYKDDPVDLRLDIERRKKHKERDLKRGKSRESVDSRDSSHSRERSAEKTEKTHKGSKKQKKHRRARDRSRSSSSSSQSSHSYKAEEYTEETEEREESTTGFDKSRLGTKDFVGPSERGGGRARGTFQFRARGRGWGRGNYSGNNNNNSNNDFQKRNREEEWDPEYTPKSKKYYLHDDREGEGSDKWVSRGRGRGAFPRGRGRFMFRKSSTSPKWAHDKFSGEEGEIEDDESGTENREEKDNIQPTTE [THRAP3] | -5.24 | -3.44 | 0.46 | 50.5 °C | 51.2 °C | -1.38 |
